For this experiment, the target named is HLA-A*24 (human). Put plainly: UV-exchange ELISA, exchange yield grade.
LYSELNKWSF [… (SEQ ID NO: 218)]: the peptide exchange yield is 50 to 75%.
The same measure for YYLSDSPLL [… (SEQ ID NO: 232)]: 50 to 75%.
The figure for VYPPYLNYL [… (SEQ ID NO: 181)] is 50 to 75%; for AYIKGGWIL [… (SEQ ID NO: 195)] it is 50 to 75%; for SYVASFFLL [… (SEQ ID NO: 215)] it is 20 to 49%.
The figure for VYAIFRILL [… (SEQ ID NO: 239)] is 50 to 75%.
For IYRFITERF [… (SEQ ID NO: 227)], the peptide exchange yield was in the range of 50 to 75%.
The same measure for VYPVVLNQI [… (SEQ ID NO: 205)]: 50 to 75%.
The figure for PYLQDVPRI [… (SEQ ID NO: 183)] is 50 to 75%; for VFTTSSNIF [… (SEQ ID NO: 186)] it is more than 75%.
The figure for LYSELTETL [… (SEQ ID NO: 190)] is 50 to 75%.
SYLKAVFNL [… (SEQ ID NO: 219)] returned a peptide exchange yield of 50 to 75%.
The figure for KYVGQLAVL [… (SEQ ID NO: 237)] is 50 to 75%.
The figure for NYSSAVQKF [… (SEQ ID NO: 178)] is 50 to 75%; for AYAQLGYLLF [… (SEQ ID NO: 182)] it is more than 75%; for EYLSTCSKL [… (SEQ ID NO: 204)] it is 50 to 75%.
The same measure for LYSPVPFTL [… (SEQ ID NO: 175)]: 50 to 75%; for RYSTFSEIF [… (SEQ ID NO: 192)]: 50 to 75%; for AYAANVHYL [… (SEQ ID NO: 187)]: more than 75%.
For the molecule VYFKAGLDVF [… (SEQ ID NO: 177)], the peptide exchange yield was in the range of 50 to 75%.
The figure for KYLQVVGMF [… (SEQ ID NO: 180)] is 50 to 75%; for SYAPPSEDLFL [… (SEQ ID NO: 213)] it is 20 to 49%; for IYSVGAFENF [… (SEQ ID NO: 184)] it is more than 75%.
The same measure for IYISNSIYF [… (SEQ ID NO: 217)]: more than 75%; for FYINGQYQF [… (SEQ ID NO: 176)]: 50 to 75%; for QYLVHVNDL [… (SEQ ID NO: 185)]: more than 75%.
The same measure for QYLEKYYNL [… (SEQ ID NO: 173)]: more than 75%; for IYAGVGEFSF [… (SEQ ID NO: 210)]: more than 75%.
Molecule AFIETPIPLF [… (SEQ ID NO: 209)] showed a peptide exchange yield of more than 75%.
The figure for MYLKLVQLF [… (SEQ ID NO: 226)] is 20 to 49%.
The same measure for VYQSLSNSL [… (SEQ ID NO: 194)]: 50 to 75%; for SYLELANTL [… (SEQ ID NO: 243)]: 50 to 75%; for VYLPKIPSW [… (SEQ ID NO: 236)]: 50 to 75%.
The figure for SYVKVLHHL [… (SEQ ID NO: 241)] is 50 to 75%; for VFIFKGNEF [… (SEQ ID NO: 172)] it is more than 75%; for SYLNHLNNL [… (SEQ ID NO: 199)] it is 50 to 75%.
As to GYKTFFNEF [… (SEQ ID NO: 188)], the peptide exchange yield lay in the range of 50 to 75%.
Consider TYIPVGLGRLL [… (SEQ ID NO: 179)], for which the peptide exchange yield is 50 to 75%.
The figure for FYVNVKEQF [… (SEQ ID NO: 216)] is 50 to 75%.
The figure for IYQYVADNF [… (SEQ ID NO: 228)] is 50 to 75%; for TFITQSPLL [… (SEQ ID NO: 223)] it is more than 75%.
The same measure for TYLEKIDGF [… (SEQ ID NO: 208)]: more than 75%.
In turn, KYLMELTLI [… (SEQ ID NO: 214)] displayed a peptide exchange yield of 50 to 75%.
The figure for DYVGFTLKI [… (SEQ ID NO: 198)] is 20 to 49%; for SYAPPSEDLF [… (SEQ ID NO: 212)] it is 20 to 49%.
Molecule AFADVSVKF [… (SEQ ID NO: 231)] had a peptide exchange yield of more than 75%.
The same measure for GYNPNRVFF [… (SEQ ID NO: 201)]: 50 to 75%; for QYLTAAALHNL [… (SEQ ID NO: 233)]: 50 to 75%; for PYFFANQEF [… (SEQ ID NO: 224)]: 50 to 75%.
The same measure for VYKDSIYYI [… (SEQ ID NO: 235)]: 50 to 75%; for KYIGNLDLL [… (SEQ ID NO: 221)]: more than 75%; for VYEKNGYIYF [… (SEQ ID NO: 174)]: 50 to 75%.
The same measure for IFTDIFHYL [… (SEQ ID NO: 197)]: more than 75%.
In the case of NYLDVATFL [… (SEQ ID NO: 206)], the peptide exchange yield was more than 75%.
The figure for VHFEDTGKTLLF [… (SEQ ID NO: 244)] is 50 to 75%; for TYGMVMVTF [… (SEQ ID NO: 230)] it is 50 to 75%; for TYPDGTYTGRIF [… (SEQ ID NO: 191)] it is 50 to 75%.
The same measure for VFIHHLPQF [… (SEQ ID NO: 200)]: 50 to 75%; for YYFFVQEKI [… (SEQ ID NO: 240)]: 50 to 75%; for TYTNTLERL [… (SEQ ID NO: 225)]: 50 to 75%.
The figure for VFKSEGAYF [… (SEQ ID NO: 211)] is more than 75%.
The molecule LYLENNAQTQF [… (SEQ ID NO: 193)] came in with a peptide exchange yield of 50 to 75%.
The figure for LYSDAFKFIVF [… (SEQ ID NO: 207)] is 50 to 75%; for SYSEIKDFL [… (SEQ ID NO: 220)] it is more than 75%.
The molecule VYGEPRELL [… (SEQ ID NO: 242)] gave a peptide exchange yield of 50 to 75%.
The same measure for SYLPAIWLL [… (SEQ ID NO: 234)]: 50 to 75%; for GYIRGSWQF [… (SEQ ID NO: 196)]: more than 75%; for RYVEGIVSL [… (SEQ ID NO: 202)]: 50 to 75%.
In the case of IYQFVADSF [… (SEQ ID NO: 229)], the peptide exchange yield is 50 to 75%.

The record behind these values is patent publication US20220249633A1.
